Patent publication US20250042994A1 (HAINAN SIMCERE ZAIMING PHARMACEUTICAL, published 2025)
Changes are numbered by the printed parent chain.

B1: F4.4.6 (antibody, human IgG1, V domains shown)
VH: QVQLQQSGAELARPGASVKLSCKASGYTFTSYWMQWVKQRPGQGLEWIGAIYPGDGDSRYTQKFKGKATLTADKSSSTAYMQLSSLASEDSAVYYCARSTTTVLGNNFEYWGQGTTLTVSS
VL: QIVLTQSPAIMSALPGEKVTMTCSASSSVSSMHWYQQKSGTSPKRWIYDTSKLASGVPARFSGSGSGTSYSLTISSMEAEDAATYYCQQWSSNPWTFGGGTKLEIK
notes: human-murine chimeric antibody, human IgG1
B2: F4.78.1 (antibody, human IgG1, V domains shown)
VH: QVQIQQSGAELARPGASVKLSCKASGYTFTNYWMQWIKQRPGQGLEWIGAIYPGDGDTRYTQKFKGKATLTADKSSSTAYMQLSSLASEDSAVYYCAREEVWSPYGMDYWGQGTSVTVSS
VL: QIVLTQSPAIMSASPGEKVTITCSASSSVSYMGWFQQKPGTSPKLWIYSTSNLASGVPARFSGSGSGTSYSLTISRMEAEDAATYYCQQRSIYPLTFGAGTKLELK
notes: as for B1
B3: F4.82.11 (antibody, human IgG1, V domains shown)
VH: QVTLKESGPGILQASQTLSLTCSFSGFSLSTFGIGVGWVRQPSGKGLEWLAHIWWNDNKFFNTTLKNRLTLSKDPSNNQVFLKIASVDTADTATYYCARSRSALITTGLYAMDYWGQGTSVTVSS
VL: DIQMTQTPSSLSASLGDRVTISCRSSQDISNYVNWYQQKPDGTVKVLINYTSRLHSGVPSRFSGSGSGTDYSLTISNLEQEDIASYFCQQGFTLPYTFGGGTKLEIK
notes: as for B1
B4: F4.107.12 (antibody, human IgG1, V domains shown)
VH: EVQLQQSGPELVKPGASVKMSCKASGYTFTSYVLHWVRQKPGQGLEWIGYFNPYNDGTEYNEKFKGKAILTSDKSSSTAYMELNSLTSEDSAVYYCVGGTYYYGSSYPFAYWGQGTLVTVST
VL: DVVMTQISLSLPVSLGDQASISCRSSQSLIHSNGNTYLQWYLQKPGQSPKLLIYKVSNRLSGVPDRFSGSGSGTDFTLKISRVEAEDLGVYFCSQSTHVPYTFGGGTKLEIK
notes: as for B1
B5: F4.125.12 (antibody, human IgG1, V domains shown)
VH: EVKLVESGGGLVQPGGSLKLSCAASGFTFSTYTMSWVRQTPEKRLEWVAFISSGGGHINYPDTVKGRFTISRDNAKNTLYLQMSSLKSEDTAMYYCARHSYWFFDVWGAGTTVTVSS
VL: DVQITQSPSYLAASPGETITINCRASKNIDTYLAWYQEKPGKTNKLLIYSGSTLQSGIPSRFRGGGSGTDFTLTICSLEPEDFAMYYCQQHNEYPLTFGAGTKLELK
notes: as for B1
B6: F4.145.9 (antibody, human IgG1, V domains shown)
VH: EVQLVESGGGLVKPGGSLKLSCAAAGFAFSSYDMSWVRQIPEKRLEWVAYISAGGGNTYFLDTVKGRFTISRDHAKNTLSLQMSSLKSEDTAMYFCVRHGDYYRYFYAMDYWGQGSSVTVSS
VL: DIVMTQSHKFMSTSVGDRVSITCKASQDVGTAVAWSQQKPGQSPKLLIYWASTRHTGVPDRFTGSGSGTDFTLTISNVQSEDLADYFCQQFVTYPYTFGGGTKLEIK
notes: as for B1
B7: F4.152.7 (antibody, human IgG1, V domains shown)
VH: QVQLQQPGAELVKPGASVKLSCKASGYTFTSYWMHWVKQRPGQGLEWIGEIDPSDSYTNYNQKFKGKATLTADKSSSTAYMQLSGLTSEDSAVYHCARGGDYDGYYVMDYWGQGTSVTVSS
VL: EIVLTQSPTTMAASPGEKITITCSASSSISSNYLHWYQQKPGFSPKLLIYRTSNLASGVPARFSGSGSGTSYSLTIGTMEADDVATYYCQQGSYIPRIFTFGSGTKLEIK
notes: as for B1
B8: F3.109.1 (antibody, human IgG1, V domains shown)
VH: EVQLQQSGAELVRPGSSVKMSCKTSGYTFTSYGINWVKQRPGQGLEWIGYIYIGNDYTEFNEKFKGKATLTSDTSSSTAYMQLSSLTSEDSAIYFCARFYSNSDPMDYWGHGTSVTVSS
VL: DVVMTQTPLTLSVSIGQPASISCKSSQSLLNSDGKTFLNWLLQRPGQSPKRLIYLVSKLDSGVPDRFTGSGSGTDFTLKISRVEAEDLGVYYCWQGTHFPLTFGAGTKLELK
notes: as for B1
B9: F3.118.14 (antibody, human IgG1, V domains shown)
VH: QVQLQQSGAELVRPGASVTLSCKASGYTFPDYEIHWVKQTPVHGLEWIGAIDPETGGIGYNQKFTGKAMLTADKSSSTAYMELRSLTSEDSAVYFCTRNYGSRWGQGSTLTVSS
VL: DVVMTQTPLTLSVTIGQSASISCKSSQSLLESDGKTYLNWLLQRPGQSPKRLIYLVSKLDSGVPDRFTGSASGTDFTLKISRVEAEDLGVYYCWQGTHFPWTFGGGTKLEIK
notes: as for B1
B10: F3.124.7 (antibody, human IgG1, V domains shown)
VH: EVQLQQSGPVLVKPGASVKMSCKASGYTFTDYYMNWVKQRHGKSLEWIGISNPYNGGTSYNQKFKDKATLTVDKSSSTAYMELNSLTSEDSAVYYCAREGGTAQPTSGMDYWGQGTSVTVSS
VL: NIMMTQSPSSLAVSAGEKVTMSCKSSQSVLYSSNQKNYLAWYQQKPGQSPKLLIYWASTRESGVPDRFTGSGSGTDFTLTISSVQPEDPAVYYCHQYRSSYTFGGGTKLEIK
notes: as for B1
B11: F3.148.10 (antibody, human IgG1, V domains shown)
VH: B8 VH with K19T, S31N, Y52F, F60Y, A97T, S103Y, D104Y, P105G, Y108P, H111Q
VL: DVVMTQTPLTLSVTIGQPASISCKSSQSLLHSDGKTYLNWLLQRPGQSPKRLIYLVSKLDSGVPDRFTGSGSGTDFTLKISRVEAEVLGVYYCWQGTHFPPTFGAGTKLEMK
notes: as for B1

Experiments:
[1] = biological target: T1, human CD19 exon1-3-his protein (human, UniProt P15391 20-186, limits assumed); assay: ELISA, coated at 2 ug/mL
T1 construct: made in HEK293E cells; also called membrane-distal end; not shown: His tag
T1 sequence (looked up): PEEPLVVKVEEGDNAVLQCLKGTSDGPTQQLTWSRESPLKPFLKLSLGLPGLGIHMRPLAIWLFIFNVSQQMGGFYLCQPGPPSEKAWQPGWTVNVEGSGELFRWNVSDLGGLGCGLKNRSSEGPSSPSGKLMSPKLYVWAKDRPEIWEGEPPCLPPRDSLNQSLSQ

Human CD19-his protein [2] = biological target: T2, Human CD19-his protein (human, UniProt P15391 20-291); assay: ELISA, antibody at 10 nM
T2 construct: bought protein; also called human CD19 protein; recombinant human CD19-His; not shown: His tag
T2 sequence (looked up): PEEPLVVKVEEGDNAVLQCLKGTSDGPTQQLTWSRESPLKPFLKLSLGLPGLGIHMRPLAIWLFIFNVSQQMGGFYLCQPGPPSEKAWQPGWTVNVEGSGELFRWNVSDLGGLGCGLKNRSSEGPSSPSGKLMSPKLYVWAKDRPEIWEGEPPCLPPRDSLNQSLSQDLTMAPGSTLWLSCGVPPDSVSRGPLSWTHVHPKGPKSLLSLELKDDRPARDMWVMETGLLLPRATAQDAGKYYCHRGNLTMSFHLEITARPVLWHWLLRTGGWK

Human CD19-his protein [3] = biological target: T2, Human CD19-his protein; assay: ELISA, antibody at 0.0001 nM
Human CD19-his protein [4] = biological target: T2, Human CD19-his protein; assay: ELISA, antibody at 0.001 nM
Human CD19-his protein [5] = biological target: T2, Human CD19-his protein; assay: ELISA, antibody at 100 nM
Human CD19-his protein [6] = biological target: T2, Human CD19-his protein; assay: ELISA, antibody at 0.01 nM
Human CD19-his protein [7] = biological target: T2, Human CD19-his protein; assay: ELISA, antibody at 0.10 nM
Human CD19-his protein [8] = biological target: T2, Human CD19-his protein; assay: ELISA, antibody at 1.00 nM
Human CD19-his protein [9] = biological target: T2, Human CD19-his protein; assay: ELISA on coated human CD19-His
Procedure: Human CD19-his protein (purchased from ACROBiosystems, catalog number: CD9-H52H2) was diluted with PBS to a final concentration of 4 μg/mL, and then added to a 96-well ELISA plate at 100 μl/well. The plate was sealed with a plastic film and incubated overnight at 4° C., the plate was washed 2 times with PBS the next day, and then a blocking solution [PBS+2% (w/w) BSA] was added for blocking at room temperature for 2 h. The blocking solution was poured off, and 100 nM gradiently diluted CD19 chimeric antibody or control antibody was added at 50 μl/well. After incubation at 37° C. for 2 h, the plate was washed 3 times with PBS. […] TMB substrate was added at 50 μl/well, and incubated at room temperature for 10 min, and then a stop solution (1.0 N HCl) was added at 50 μl/well. The OD450 nm values were read by an ELISA microplate reader (Multimode Plate Reader, EnSight, purchased from Perkin Elmer).

murine CD19 protein = biological target: T3, murine CD19 protein (murine, UniProt P25918 17-287, limits assumed); assay: ELISA, coated murine CD19
T3 construct: bought protein; also called commercial murine CD19
T3 sequence (looked up): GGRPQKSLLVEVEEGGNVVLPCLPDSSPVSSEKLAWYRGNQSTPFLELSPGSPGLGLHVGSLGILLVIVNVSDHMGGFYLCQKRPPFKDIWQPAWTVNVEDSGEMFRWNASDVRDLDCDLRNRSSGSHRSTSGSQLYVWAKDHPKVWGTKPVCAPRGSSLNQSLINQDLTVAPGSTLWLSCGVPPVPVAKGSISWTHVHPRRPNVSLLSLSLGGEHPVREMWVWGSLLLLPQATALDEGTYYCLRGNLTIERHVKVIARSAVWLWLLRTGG
How it was run: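 Plates coated overnight at 4° C with recombinant murine or monkey CD19 and blocked with 2% BSA. Chimeric antibodies, serially diluted from 100 nM, bound for 2 h at 37° C. TMB development for 10 min with OD450 read-out.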

| Binder | binding result [1] | OD450 (Human CD19-his protein [2]) | OD450 (Human CD19-his protein [3]) | OD450 (Human CD19-his protein [4]) | OD450 (Human CD19-his protein [5]) | OD450 (Human CD19-his protein [6]) | OD450 (Human CD19-his protein [7]) | OD450 (Human CD19-his protein [8]) | EC50 (read off the curve) (Human CD19-his protein [9]) | binding result (murine CD19 protein) |
| --- | --- | --- | --- | --- | --- | --- | --- | --- | --- | --- |
| B1 | no binding | 0.58 | 0.05 | 0.06 | 0.79 | 0.1 | 0.37 | 0.6 | ~0.1 nM | no binding |
| B2 | no binding | 1.94 | 0.06 | 0.08 | 1.87 | 0.23 | 1.09 | 1.73 | ~0.07 nM | no binding |
| B3 | no binding | 1.55 | 0.09 | 0.18 | 1.52 | 0.24 | 0.85 | 1.6 | ~0.08 nM | no binding |
| B4 | no binding | 1.75 | 0.05 | 0.08 | 1.77 | 0.27 | 1.33 | 1.93 | ~0.04 nM | no binding |
| B5 | no binding | 1.54 | 0.06 | 0.09 | 1.84 | 0.23 | 1.07 | 1.68 | ~0.06 nM | no binding |
| B6 | no binding | 1.73 | 0.06 | 0.08 | 1.84 | 0.27 | 1.11 | 1.79 | ~0.06 nM | no binding |
| B7 | no binding | 2.01 | 0.05 | 0.07 | 2.07 | 0.26 | 1.28 | 2.12 | ~0.06 nM | no binding |
| B8 |  | 2.92 | 0.05 | 0.07 | 2.98 | 0.24 | 1.18 | 2.62 | ~0.2 nM | no binding |
| B9 |  | 2.9 | 0.05 | 0.07 | 3.21 | 0.19 | 1.02 | 2.27 | ~0.3 nM | no binding |
| B10 |  | 2.63 | 0.08 | 0.18 | 2.75 | 0.81 | 2.08 | 2.6 | ~0.03 nM | no binding |
| B11 |  | 2.94 | 0.05 | 0.07 | 3.01 | 0.22 | 0.98 | 2.66 | ~0.2 nM | no binding |
